The target in the experiment is phospholamban (PLN), mouse (mouse (endogenous in mouse heart)) (UniProt P61014). Put plainly: co-IP.
Chain of UniProt P61014 (P61014 whole entry): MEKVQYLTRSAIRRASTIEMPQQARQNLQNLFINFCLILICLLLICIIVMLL

The substance “protein phosphatase 1 catalytic subunit (PP1c), mouse (from UniProt P62137 1-330) (enzyme)” returned a reduction of PP1c bound to PLN in Ppp1r3a-KO against WT hearts of 58%.

The values are drawn from publication PMC6699925.
